Measurements: patent publication US20160319321

What was measured:
[1] = biological target: T1, Lys(Dnp)-ELGDR-EGTFT-Lys(Abz)amide
T1 chain: KELGDREGTFTK

[2] = biological target: T2, DVKPGEPLYDEGDR-[Arg34]GLP-1(9-37)
T2 chain: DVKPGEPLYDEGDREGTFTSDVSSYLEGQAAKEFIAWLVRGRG

[3] = biological target: T3, Lys(Dnp)-DDGDR-HGEGT-Lys(Abz)amide
T3 chain: KDDGDRHGEGTK

[4] = biological target: T4, Lys(Dnp)-EWGDR-HAEGT-Lys(Abz)amide
T4 chain: KEWGDRHAEGTK

[5] = biological target: T5, Lys(Dnp)-DDGDR-EGTFT-Lys(Abz)amide
T5 chain: KDDGDREGTFTK

[6] = biological target: T6, Lys(Dnp)-EGGDR-EGTFT-Lys(Abz)amide
T6 chain: KEGGDREGTFTK

[7] = biological target: T7, DVKPEQPLYDEGDR-[Arg34]GLP-1(9-37)
T7 chain: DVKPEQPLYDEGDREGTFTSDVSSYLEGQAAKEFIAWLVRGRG

[8] = biological target: T8, Lys(Dnp)-DHGDR-EGTFT-Lys(Abz)amide
T8 chain: KDHGDREGTFTK

[9] = biological target: T9, Lys(Dnp)-DFGDR-EGTFT-Lys(Abz)amide
T9 chain: KDFGDREGTFTK

B1: bovine Enterokinase light chain variant (C112A, L134K, I135K) (protein)
chain: IVGGSDSREGAWPWVVALYFDDQQVCGASLVSRDWLVSAAHCVYGRNMEPSKWKAVLGLHMASNLTSPQIETRLIDQIVINPHYNKRRKNNDIAMMHLEMKVNYTDYIQPIALPEENQVFPPGRICSIAGWGAKKYQGSTADVLQEADVPLLSNEKCQQQMPEYNITENMVCAGYEAGGVDSCQGDSGGPLMCQENNRWLLAGVTSFGYQCALPNRPGVYARVPRFTEWIQSFLH
B1 showed an Activity (%) [1] of 396%, an Activity (%) [2] of 895% and an Activity (%) [3] of 439%. It also gave an Activity (%) [4] of 456%, an Activity (%) [5] of 428% and an Activity (%) [6] of 380%. For the same protein, the Activity (%) [7] was 803%, the Activity (%) [8] was 398% and the Activity (%) [9] was 419%.
